Assay results reported in the supplement of paper PMC12338614.
± gives the uncertainty stated by the source.

B1: library; numbered along this chain (parent)
chain: MEVVDPQQLGMFTEGELMSVGMDTFIHRIDSTEVIYQPRRKRAKLIGKYLMGDLLGEGSYGKVKEVLDSETLCRRAVKILKKKKLRRIPNGEANVKKEIQLLRRLRHKNVIQLVDVLYNEEKQKMYMVMEYCVCGMQEMLDSVPEKRFPVCQAHGYFCQLIDGLEYLHSQGIVHKDIKPGNLLLTTGGTLKISDLGVAEALHPFAADDTCRTSQGSPAFQPPEIANGLDTFSGFKVDIWSAGVTLYNITTGLYPFEGDNIYKLFENIGKGSYAIPGDCGPPLSDLLKGMLEYEPAKRFSIRQIRQHSWFRKKHPPAEAPVPIPPSPDTKDRWRSMTVVPYLEDLHGADEDEDLFDIEDDIIYTQDFTVPGQVPEEEASHNGQRRGLPKAVCMNGTEAAQLSTKSRAEGRAPNPARKACSASSKIRRLSACKQQ

Variants of: B1
Assay: STK11 functional score (HeLa growth suppression), rescaled enrichment; synonymous median = 1, nonsense median = 0 (normalised score)
Conditions: with HeLa; variant type: missense
Protocol: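 Deep mutational scan (TileSeq/POPCode codon randomisation) of full-length codon-optimised STK11 cDNA integrated at a Bxb1 landing pad (AAVS1) in HeLa cells. Restoring functional STK11 suppresses HeLa proliferation. Variant frequencies were measured by NGS before and after about two weeks of growth. The error-corrected enrichment log-ratio was rescaled so that synonymous median = 1 and nonsense median = 0, scores above 1 were compressed, and codon-level and three biological replicate scores were combined; error is the bootstrapped standard error. Scale: synonymous median = 1, nonsense median = 0; below 0.5 = damaging.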

N119R and Y49M are within error of each other in STK11 functional score: 1.26 ± 0.17 for the first, 1.22 ± 0.82 for the second.

Going from Y49S to F255L, the STK11 functional score falls from 1 ± 0.28 to 0.5 ± 0.21.

F255S and E138S are within error of each other in STK11 functional score: 1.14 ± 0.19 for the first, 1.26 ± 0.12 for the second.

Going from D208L to L427Y, the STK11 functional score falls from 1.36 ± 0.18 to 0.805 ± 0.33.

Compared with T363W, T363Q is higher in STK11 functional score: 1.19 ± 0.16 for the first, 1.52 ± 0.15 for the second.

P324S and E376A are within error of each other in STK11 functional score: 1.45 ± 0.11 for the first, 1.4 ± 0.35 for the second.

E376Y and S404L are within error of each other in STK11 functional score: 1.56 ± 0.19 for the first, 1.47 ± 0.25 for the second.

Going from L190P to D53A, the STK11 functional score rises from 0.0599 ± 0.15 to 1.07 ± 0.12.

D53E and D53G are within error of each other in STK11 functional score: 0.779 ± 0.31 for the first, 0.726 ± 0.14 for the second.

N94S and L386W are within error of each other in STK11 functional score: 1.27 ± 0.34 for the first, 1.13 ± 0.25 for the second.

L386S and L386V are within error of each other in STK11 functional score: 1.45 ± 0.24 for the first, 1.06 ± 0.46 for the second.

P217Y and P217F are the same in STK11 functional score: 1.45 ± 0.31 for the first, 1.45 ± 0.12 for the second.

Compared with L55V, L55W is lower in STK11 functional score: 0.737 ± 0.11 for the first, 0.491 ± 0.13 for the second.

Going from V4W to E199L, the STK11 functional score falls from 1.22 ± 0.089 to 0.971 ± 0.12.

G10Y and R103I are within error of each other in STK11 functional score: 1.18 ± 0.15 for the first, 1 ± 0.15 for the second.

R103K and E223S are within error of each other in STK11 functional score: 1.18 ± 0.77 for the first, 0.551 ± 0.1 for the second.

First: E223R
Second: E223T
The STK11 functional score of the first is higher: 0.921 ± 0.41 for the first, 0.188 ± 0.086 for the second.

Going from E223W to E223Y, the STK11 functional score rises from 0.142 ± 0.1 to 1 ± 0.71.

Q123H and Q123S are within error of each other in STK11 functional score: 1.11 ± 0.38 for the first, 1.49 ± 0.17 for the second.

G268I and S325A are within error of each other in STK11 functional score: 1.65 ± 0.17 for the first, 1.05 ± 0.5 for the second.

Compared with S307P, E98R is lower in STK11 functional score: 1.57 ± 0.27 for the first, 0.172 ± 0.083 for the second.

First: E98A
Second: E98S
The STK11 functional score of the first is lower: 0.326 ± 0.083 for the first, 1.49 ± 0.16 for the second.

G233W and E357Y are within error of each other in STK11 functional score: 1.16 ± 0.17 for the first, 1.39 ± 0.26 for the second.

G408I and G408E are within error of each other in STK11 functional score: 1.51 ± 0.14 for the first, 1.54 ± 0.12 for the second.

M51P and K423F are within error of each other in STK11 functional score: 1.66 ± 0.35 for the first, 1.07 ± 0.33 for the second.

K403S and K403A are within error of each other in STK11 functional score: 0.892 ± 0.59 for the first, 1.6 ± 0.27 for the second.

T24A and T250W are within error of each other in STK11 functional score: 1.36 ± 0.46 for the first, 1.48 ± 0.098 for the second.

T250F and A43T are within error of each other in STK11 functional score: 1.14 ± 0.2 for the first, 1.43 ± 0.16 for the second.

L353A and L353P are within error of each other in STK11 functional score: 1.56 ± 0.24 for the first, 1.12 ± 0.72 for the second.

I303C and D350N are within error of each other in STK11 functional score: 0.545 ± 0.16 for the first, 1.07 ± 0.72 for the second.

D365V and K431M are within error of each other in STK11 functional score: 1.14 ± 0.41 for the first, 1.25 ± 0.51 for the second.

M335V and S419K are within error of each other in STK11 functional score: 1.42 ± 0.13 for the first, 1.39 ± 0.21 for the second.

Compared with K122V, K64G is lower in STK11 functional score: 0.86 ± 0.084 for the first, 0.436 ± 0.29 for the second.

I322V and L201H are within error of each other in STK11 functional score: 1.08 ± 0.23 for the first, 1.16 ± 0.3 for the second.

G227T and S213N are within error of each other in STK11 functional score: 1.67 ± 0.13 for the first, 1.65 ± 0.19 for the second.

Q371I and K235C are within error of each other in STK11 functional score: 1.52 ± 0.3 for the first, 1.4 ± 0.27 for the second.

K97E and K97Q are within error of each other in STK11 functional score: 1.42 ± 0.45 for the first, 0.688 ± 0.72 for the second.

L183F and G61Q are within error of each other in STK11 functional score: 0.885 ± 0.55 for the first, 0.913 ± 0.41 for the second.

S334Q and R104L are within error of each other in STK11 functional score: 1.53 ± 0.13 for the first, 1.4 ± 0.2 for the second.

Going from I300M to I300W, the STK11 functional score rises from 0.944 ± 0.21 to 1.27 ± 0.09.

First: Y36N
Second: C151H
The STK11 functional score of the first is higher: 1.6 ± 0.22 for the first, 0.883 ± 0.11 for the second.

Compared with I99P, D162T is higher in STK11 functional score: 0.0871 ± 0.35 for the first, 1.4 ± 0.28 for the second.

D162M and S422W are within error of each other in STK11 functional score: 1.62 ± 0.2 for the first, 1.4 ± 0.15 for the second.

Going from S422R to S422N, the STK11 functional score falls from 1.47 ± 0.19 to 0.705 ± 0.48.

Going from S422E to Y118F, the STK11 functional score falls from 1.49 ± 0.17 to 0.519 ± 0.077.

K124R and Q305D are within error of each other in STK11 functional score: 1.18 ± 0.52 for the first, 1.36 ± 0.16 for the second.

C418R and T402S are within error of each other in STK11 functional score: 1.54 ± 0.13 for the first, 1.31 ± 0.18 for the second.

T402G and V150H are within error of each other in STK11 functional score: 1.13 ± 0.21 for the first, 1.26 ± 0.38 for the second.

T212W and M22R are within error of each other in STK11 functional score: 1.41 ± 0.36 for the first, 1.65 ± 0.38 for the second.

Compared with S378C, S378W is lower in STK11 functional score: 1.42 ± 0.11 for the first, 0.76 ± 0.1 for the second.

S378T and F354K are within error of each other in STK11 functional score: 1.4 ± 0.26 for the first, 1.57 ± 0.22 for the second.

First: P321G
Second: G251I
The STK11 functional score of the first is higher: 1.01 ± 0.14 for the first, 0.422 ± 0.25 for the second.

A398E and N380R are within error of each other in STK11 functional score: 1.55 ± 0.25 for the first, 1.56 ± 0.24 for the second.

D277S and P339G are within error of each other in STK11 functional score: 0.886 ± 0.28 for the first, 0.73 ± 0.27 for the second.

P339Y and T249H are within error of each other in STK11 functional score: 1.21 ± 0.39 for the first, 1.64 ± 0.2 for the second.

Compared with D115G, E317I is higher in STK11 functional score: 0.497 ± 0.1 for the first, 1.55 ± 0.19 for the second.

E374G and E374A are within error of each other in STK11 functional score: 1.12 ± 0.33 for the first, 0.915 ± 0.21 for the second.

First: Q100L
Second: Q100Y
The STK11 functional score of the first is higher: 0.857 ± 0.23 for the first, 0.248 ± 0.19 for the second.

Q100V and Q399H are within error of each other in STK11 functional score: 1.39 ± 0.2 for the first, 1.13 ± 0.63 for the second.

Compared with E33W, E33Y is higher in STK11 functional score: 0.795 ± 0.09 for the first, 1.21 ± 0.2 for the second.

E33I and K262T are within error of each other in STK11 functional score: 0.611 ± 0.19 for the first, 1.08 ± 0.31 for the second.

P144I and P144S are within error of each other in STK11 functional score: 0.87 ± 0.082 for the first, 0.825 ± 0.15 for the second.

V338P and V338L are within error of each other in STK11 functional score: 1.54 ± 0.18 for the first, 1.39 ± 0.22 for the second.

G394H and E70I are within error of each other in STK11 functional score: 1.6 ± 0.29 for the first, 1.54 ± 0.19 for the second.

Compared with K78H, A410V is higher in STK11 functional score: -0.114 ± 0.081 for the first, 1.32 ± 0.21 for the second.

A410I and I46C are within error of each other in STK11 functional score: 1.54 ± 0.22 for the first, 1.17 ± 0.2 for the second.

L54M and L54F are within error of each other in STK11 functional score: 1.1 ± 0.19 for the first, 0.99 ± 0.078 for the second.

Going from P411W to P411D, the STK11 functional score rises from 0.581 ± 0.075 to 1.59 ± 0.15.

E407W and E407G are within error of each other in STK11 functional score: 0.194 ± 0.092 for the first, 0.689 ± 0.64 for the second.

V63M and F219L are within error of each other in STK11 functional score: 0.802 ± 0.23 for the first, 1.11 ± 0.13 for the second.

E293V and G188P are within error of each other in STK11 functional score: 1.02 ± 0.18 for the first, 1.36 ± 0.34 for the second.

T13R and E57L are within error of each other in STK11 functional score: 1.08 ± 0.37 for the first, 0.946 ± 0.29 for the second.

Going from A93P to Y261S, the STK11 functional score falls from 1.68 ± 0.42 to 0.699 ± 0.16.

Compared with Y261L, G257E is higher in STK11 functional score: 0.609 ± 0.14 for the first, 1.32 ± 0.47 for the second.

W239D and W239A are within error of each other in STK11 functional score: -0.00743 ± 0.45 for the first, 0.388 ± 0.093 for the second.

Going from W239I to S299W, the STK11 functional score rises from -0.18 ± 0.095 to 1.24 ± 0.14.

S299C and I88L are within error of each other in STK11 functional score: 1.3 ± 0.2 for the first, 1.24 ± 0.26 for the second.

I88G and I88V are within error of each other in STK11 functional score: 0.665 ± 0.23 for the first, 0.87 ± 0.1 for the second.

A76I and A429W are within error of each other in STK11 functional score: 1.4 ± 0.15 for the first, 1.21 ± 0.38 for the second.

A429E and E349A are within error of each other in STK11 functional score: 1.55 ± 0.19 for the first, 1.5 ± 0.13 for the second.

Going from E349L to C391W, the STK11 functional score falls from 1.47 ± 0.14 to 0.764 ± 0.48.

I260D and I260L are within error of each other in STK11 functional score: 1.16 ± 0.21 for the first, 1.28 ± 0.27 for the second.

First: P254H
Second: C132P
The STK11 functional score of the first is higher: 1.41 ± 0.15 for the first, -0.178 ± 0.083 for the second.

C430S gave an STK11 functional score of 1.56 ± 0.34.
